Source: patent US20160068813A1, “DIFFERENTIATION OF ADIPOSE STROMAL CELLS INTO OSTEOBLASTS AND USES THEREOF” (Artecel Sciences Inc., priority 1997, published 2016)

System: stromal cells isolated from adipose tissue
Test: Effect of compounds on osteoblast differentiation of adipose stromal cells, measured by secreted osteocalcin
Assay type: cell-based, human
Conditions: differentiated as in Example 2 in presence and absence of compound; secreted osteocalcin assay; data not shown
Procedure: Adipose stromal cells were isolated as described in Example 1 and then treated as follows to induce differentiation into osteoblasts. Stromal cells were plated in 24-well and/or 6-well tissue culture plates in stromal cell medium (see above) at a density of about 22,000 cells/cm^2. After 24 hours, the stromal cell medium was replaced with osteoblast differentiation medium (DMEM with 10% fetal bovine serum (v/v); 10 mM β-glycerophosphate; 50 μg/ml ascorbate-2-phosphate; 60 U/ml penicillin; 60 U/ml streptomycin; 15 μg/ml amphotericin B). The osteoblast differentiation medium was replaced with fresh medium every 3 days for 3 weeks. When changing the media, one ml of conditioned media was collected and stored at −80° C. for later analysis of secreted factors. […]
Biochemical changes indicative of osteoblast differentiation were also assessed. Osteocalcin is an osteoblast-specific secreted protein that can be measured by ELISA (Intact Human Osteocalcin K EIA kit, catalog number BT-460, Biomedical Technologies, Inc., Stoughton, Mass.). […]
Cultures of stromal cells isolated from adipose tissue according to the method described in Example 1 were used to study the effect compounds of interest on osteoblast differentiation. […] Differentiation was measured by assays for secreted osteocalcin. […]

B1: bone morphogenetic protein 4: bone morphogenetic protein, known osteoblast differentiation promoting agent (protein, UniProt P12644 293-408, looked up)
Bone morphogenetic protein 4: SPKHHSQRARKKNKNCRRHSLYVDFSDVGWNDWIVAPPGYQAFYCHGDCPFPLADHLNSTNHAIVQTLVNSVNSSIPKACCVPTELSAISMLYLDEYDKVVLKNYQEMVVEGCGCR
effect on osteoblast differentiation: positively affect osteoblast differentiation
